Experimental data published in PMC3235159.

Tests used:
TGF-β1 (Homo sapiens) = TGF-β1 (Homo sapiens) (UniProt P01137); conditions: cited from earlier work
[1] = target: Purified LRP1 (LDL receptor-related protein 1) (UniProt Q07954); experiment: SPR; purified LRP1 immobilised on a CM5 chip by amine coupling (5.8 fmol/mm^2, 3,500 RU); TGF-β2 flowed at 6, 12, 15, 50, 100 and 200 nM; HBS-P pH 7.4, 0.005% Tween 20, 1 mM CaCl2, 20 µl/min, 25°C; Rmax of pseudo-first order fits replotted against concentration and fit to a single class of sites
Chain of Purified LRP1 (LDL receptor-related protein 1) (Q07954 20-4544): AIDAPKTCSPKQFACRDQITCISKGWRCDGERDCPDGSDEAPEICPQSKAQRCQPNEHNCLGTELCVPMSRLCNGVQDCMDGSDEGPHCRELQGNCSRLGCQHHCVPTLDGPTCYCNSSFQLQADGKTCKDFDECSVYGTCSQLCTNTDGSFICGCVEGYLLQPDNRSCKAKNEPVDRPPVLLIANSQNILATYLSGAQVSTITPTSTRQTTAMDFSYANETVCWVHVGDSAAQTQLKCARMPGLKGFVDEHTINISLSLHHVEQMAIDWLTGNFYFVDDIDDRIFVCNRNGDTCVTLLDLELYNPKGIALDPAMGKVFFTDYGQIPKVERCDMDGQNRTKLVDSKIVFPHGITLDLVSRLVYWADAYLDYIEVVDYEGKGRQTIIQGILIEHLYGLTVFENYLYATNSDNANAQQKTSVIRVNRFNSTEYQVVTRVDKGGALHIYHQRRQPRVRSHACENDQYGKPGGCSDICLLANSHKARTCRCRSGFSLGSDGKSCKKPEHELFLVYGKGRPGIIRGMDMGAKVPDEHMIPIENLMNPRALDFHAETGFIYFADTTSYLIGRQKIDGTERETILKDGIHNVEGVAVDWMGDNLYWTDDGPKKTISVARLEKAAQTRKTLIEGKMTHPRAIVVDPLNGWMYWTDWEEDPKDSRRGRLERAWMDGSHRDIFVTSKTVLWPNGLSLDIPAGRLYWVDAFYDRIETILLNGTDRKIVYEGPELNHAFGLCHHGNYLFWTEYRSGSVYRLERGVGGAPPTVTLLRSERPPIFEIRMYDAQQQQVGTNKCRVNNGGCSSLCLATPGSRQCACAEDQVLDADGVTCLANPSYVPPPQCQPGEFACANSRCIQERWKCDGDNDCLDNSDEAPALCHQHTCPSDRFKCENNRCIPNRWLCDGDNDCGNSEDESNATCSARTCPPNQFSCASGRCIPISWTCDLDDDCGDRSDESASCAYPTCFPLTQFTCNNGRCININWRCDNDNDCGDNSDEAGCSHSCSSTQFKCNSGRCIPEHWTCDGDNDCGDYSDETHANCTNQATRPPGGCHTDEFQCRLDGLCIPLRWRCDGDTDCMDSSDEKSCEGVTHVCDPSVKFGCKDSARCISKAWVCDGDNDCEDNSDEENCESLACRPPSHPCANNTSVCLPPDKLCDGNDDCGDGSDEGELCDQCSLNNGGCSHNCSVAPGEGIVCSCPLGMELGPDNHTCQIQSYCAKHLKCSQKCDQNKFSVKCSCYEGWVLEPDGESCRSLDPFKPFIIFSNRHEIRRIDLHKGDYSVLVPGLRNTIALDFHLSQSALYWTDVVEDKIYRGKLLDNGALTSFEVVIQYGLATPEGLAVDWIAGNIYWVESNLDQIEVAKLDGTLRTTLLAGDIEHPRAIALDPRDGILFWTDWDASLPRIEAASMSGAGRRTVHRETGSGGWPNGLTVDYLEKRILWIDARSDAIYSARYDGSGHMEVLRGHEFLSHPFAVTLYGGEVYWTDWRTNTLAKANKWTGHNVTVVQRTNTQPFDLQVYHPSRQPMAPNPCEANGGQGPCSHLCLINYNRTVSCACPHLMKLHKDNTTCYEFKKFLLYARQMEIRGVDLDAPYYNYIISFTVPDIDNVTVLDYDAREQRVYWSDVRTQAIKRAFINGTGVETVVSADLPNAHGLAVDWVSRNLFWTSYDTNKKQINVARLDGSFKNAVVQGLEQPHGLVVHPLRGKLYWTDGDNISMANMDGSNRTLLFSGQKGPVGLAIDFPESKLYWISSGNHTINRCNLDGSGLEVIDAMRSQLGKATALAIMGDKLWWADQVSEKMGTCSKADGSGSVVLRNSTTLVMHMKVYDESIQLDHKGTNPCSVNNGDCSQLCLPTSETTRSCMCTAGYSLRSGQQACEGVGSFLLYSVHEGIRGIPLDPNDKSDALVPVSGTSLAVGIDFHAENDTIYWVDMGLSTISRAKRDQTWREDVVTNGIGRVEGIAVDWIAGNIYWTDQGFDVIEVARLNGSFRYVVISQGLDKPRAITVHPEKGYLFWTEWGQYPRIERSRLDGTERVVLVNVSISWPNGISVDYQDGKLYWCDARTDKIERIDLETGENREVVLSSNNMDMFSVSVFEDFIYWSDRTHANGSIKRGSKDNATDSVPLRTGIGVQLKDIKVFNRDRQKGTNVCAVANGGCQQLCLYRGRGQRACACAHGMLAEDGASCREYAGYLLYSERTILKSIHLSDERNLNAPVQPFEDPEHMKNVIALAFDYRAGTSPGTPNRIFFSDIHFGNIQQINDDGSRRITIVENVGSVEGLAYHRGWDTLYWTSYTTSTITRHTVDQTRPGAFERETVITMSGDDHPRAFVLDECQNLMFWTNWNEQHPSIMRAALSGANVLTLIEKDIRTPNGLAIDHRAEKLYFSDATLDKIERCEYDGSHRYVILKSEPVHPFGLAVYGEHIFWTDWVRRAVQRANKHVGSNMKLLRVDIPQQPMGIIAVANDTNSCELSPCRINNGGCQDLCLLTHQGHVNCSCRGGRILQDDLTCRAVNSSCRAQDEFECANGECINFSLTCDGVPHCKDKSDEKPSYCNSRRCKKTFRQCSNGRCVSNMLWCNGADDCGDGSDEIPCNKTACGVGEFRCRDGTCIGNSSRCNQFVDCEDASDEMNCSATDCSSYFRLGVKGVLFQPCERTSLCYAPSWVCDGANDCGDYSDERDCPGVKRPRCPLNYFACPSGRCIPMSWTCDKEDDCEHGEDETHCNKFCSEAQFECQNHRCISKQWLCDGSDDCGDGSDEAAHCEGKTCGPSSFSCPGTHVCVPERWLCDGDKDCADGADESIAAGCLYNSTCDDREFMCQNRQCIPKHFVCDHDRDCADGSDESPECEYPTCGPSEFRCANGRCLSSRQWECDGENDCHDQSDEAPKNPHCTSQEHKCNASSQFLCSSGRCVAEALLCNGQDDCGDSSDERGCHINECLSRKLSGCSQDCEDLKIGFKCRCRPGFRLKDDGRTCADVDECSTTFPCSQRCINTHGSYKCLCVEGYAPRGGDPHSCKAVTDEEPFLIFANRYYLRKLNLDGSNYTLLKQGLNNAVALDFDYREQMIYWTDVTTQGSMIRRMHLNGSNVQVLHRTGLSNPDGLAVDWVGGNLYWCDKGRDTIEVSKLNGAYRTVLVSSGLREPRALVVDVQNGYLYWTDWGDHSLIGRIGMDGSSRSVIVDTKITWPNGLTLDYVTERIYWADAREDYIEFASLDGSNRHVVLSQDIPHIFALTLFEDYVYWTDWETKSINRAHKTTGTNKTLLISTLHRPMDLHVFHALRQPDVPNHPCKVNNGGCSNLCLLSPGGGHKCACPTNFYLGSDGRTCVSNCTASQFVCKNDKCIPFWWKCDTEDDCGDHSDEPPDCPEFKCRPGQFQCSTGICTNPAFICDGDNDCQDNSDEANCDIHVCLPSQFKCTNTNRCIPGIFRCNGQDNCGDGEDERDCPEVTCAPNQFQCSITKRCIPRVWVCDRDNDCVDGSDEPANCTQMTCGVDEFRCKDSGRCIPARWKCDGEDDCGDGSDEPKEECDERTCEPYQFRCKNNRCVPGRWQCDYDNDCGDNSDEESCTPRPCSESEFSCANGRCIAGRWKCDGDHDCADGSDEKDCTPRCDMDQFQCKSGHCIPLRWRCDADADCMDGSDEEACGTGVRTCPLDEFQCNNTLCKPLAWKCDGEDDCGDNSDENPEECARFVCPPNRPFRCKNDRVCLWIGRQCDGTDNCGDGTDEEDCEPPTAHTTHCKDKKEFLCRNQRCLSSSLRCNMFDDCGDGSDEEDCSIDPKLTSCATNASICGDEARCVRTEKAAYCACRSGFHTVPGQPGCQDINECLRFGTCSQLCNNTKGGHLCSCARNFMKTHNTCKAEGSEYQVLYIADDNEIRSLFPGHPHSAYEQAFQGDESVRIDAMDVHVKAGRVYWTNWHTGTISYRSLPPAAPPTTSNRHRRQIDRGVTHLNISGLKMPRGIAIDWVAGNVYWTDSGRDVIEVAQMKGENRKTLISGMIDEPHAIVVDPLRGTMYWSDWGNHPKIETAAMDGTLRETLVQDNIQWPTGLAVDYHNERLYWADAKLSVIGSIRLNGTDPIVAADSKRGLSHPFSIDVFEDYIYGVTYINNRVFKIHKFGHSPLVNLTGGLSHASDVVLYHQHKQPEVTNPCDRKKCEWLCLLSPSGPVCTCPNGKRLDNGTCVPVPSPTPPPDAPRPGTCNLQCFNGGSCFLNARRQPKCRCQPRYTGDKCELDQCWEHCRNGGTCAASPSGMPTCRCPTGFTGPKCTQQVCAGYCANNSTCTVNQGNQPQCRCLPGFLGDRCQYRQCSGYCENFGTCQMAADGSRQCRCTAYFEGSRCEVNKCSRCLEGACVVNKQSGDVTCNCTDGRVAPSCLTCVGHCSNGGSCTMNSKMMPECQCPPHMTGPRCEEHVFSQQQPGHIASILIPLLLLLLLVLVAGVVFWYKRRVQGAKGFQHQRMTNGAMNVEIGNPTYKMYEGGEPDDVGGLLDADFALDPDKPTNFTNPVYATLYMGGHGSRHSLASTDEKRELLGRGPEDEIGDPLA

Chain of LRP1 (Q07954 20-4544): as above
Chain of TGF-β1 (Homo sapiens) (P01137 279-390): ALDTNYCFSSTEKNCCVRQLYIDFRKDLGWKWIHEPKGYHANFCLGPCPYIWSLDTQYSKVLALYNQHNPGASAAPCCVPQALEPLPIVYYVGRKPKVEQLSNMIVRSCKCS

Substance: LRP1 (from UniProt Q07954)
- Kd (TGF-β1 (Homo sapiens)): 157 nM

Substance: TGF-β2 (Sigma) (ligand)
- Kd [1]: 222 nM
